Reference: patent publication US20170022287A1 (Chugai, published 2017)
Substitutions are numbered along the chain they refer to.

B1: R5 (antibody, V domains shown)
VH: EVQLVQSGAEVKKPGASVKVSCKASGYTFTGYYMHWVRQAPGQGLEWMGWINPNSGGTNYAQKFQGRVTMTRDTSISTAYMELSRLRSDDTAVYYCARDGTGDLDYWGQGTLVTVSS
VL: QSALTQPRSVSGSPGQSVTISCTGTSSDVGVYDYVSWYQQFPGKAPKLMIYDVNKRPSGVPDRFSGSKSGNTASLTVSGLQAEDEADYYCCSYSGTDIRWLFGGGTKLTVL
notes: Naive library clone; Fab on phage in the phage ELISA
B2: R3 (antibody, V domains shown)
VH: EVQLVQSGAEVKKPGASVKVSCKASGYTFTSYYTHWVRQAPGQGLEWMGIINPSGGSTSYAQKFQGRVTMTRDTSTSTVYMELSSLRSEDTAVYYCARGAPEYSSSSDYWGQGTMVTVSS
VL: QSALTQPASVSGSPGQSITISCTGTSSDVGGYNFVSWYQQHPGKAPKLMIYDVSKRPSGVSTRFSGSKSGNTASLTISGLQAEDEADYYCNSYTTSSTRWMFGGGTKVTVL
notes: as for B1
B3: R4 (antibody, V domains shown)
VH: EVQLVQSGAEVKKPGASVKVSCKASGYTFSGYYMHWVRQAPGQGLEWMGWINPNSGDTNYAQNFQGRVTMTRDTSISTAYMELSRLRSDDTAVYYCARDGTGYSSSPDYWGQGTPVTVSS
VL: B2 VL with F34Y, K55N, T62N, N91S, T95S, M101V, V108L
notes: as for B1
B4: R6 (antibody, V domains shown)
VH: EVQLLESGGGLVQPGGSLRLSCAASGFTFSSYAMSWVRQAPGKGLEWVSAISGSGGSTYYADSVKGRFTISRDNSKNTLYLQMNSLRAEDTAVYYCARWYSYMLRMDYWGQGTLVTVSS
VL: DIQMTQSPSSLSASVGDRVTITCRASQSISSYLNWYQQKPGKAPKLLIYAASSLQSGVPSRFSGSGSGTDFTLTISSLQPEDFATYYCQQFHSFPLTFGGGTKVEIK
notes: Synthetic library clone; Fab on phage in the phage ELISA

What was measured:
CRD1 [1] = molecular target: T1, CRD1; assay: ELISA, coated CD137-Fc protein 2 µg/mL, antibody 10 or 5 µg/mL; absorbance 620 nm divided by that of the uncoated well
T1 construct: also called fragmented human CD137-Fc fusion protein CRD1
T1 sequence (chain, as listed by the source limits assumed): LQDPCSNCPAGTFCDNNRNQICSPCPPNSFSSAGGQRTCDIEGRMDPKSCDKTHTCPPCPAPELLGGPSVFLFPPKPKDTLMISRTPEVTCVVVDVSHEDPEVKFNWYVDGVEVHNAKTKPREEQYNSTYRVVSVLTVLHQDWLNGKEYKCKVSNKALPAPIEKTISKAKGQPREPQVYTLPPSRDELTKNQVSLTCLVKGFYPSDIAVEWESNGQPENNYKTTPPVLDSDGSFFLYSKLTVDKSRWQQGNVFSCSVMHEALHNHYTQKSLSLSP
Protocol: (§1) Fragmented human CD137-Fc fusion proteins were diluted to 2 μg/mL in an aqueous sodium carbonate solution adjusted to pH9.6. Fifty μL of a diluted fragmented human CD137-Fc fusion protein was added individually to each well of a Nunc MaxiSorp flat-bottom 96 well plate (Nunc). This was allowed to stand at 4° C. overnight or longer, and then the plate was allowed to stand at room temperature for one hour so that the plate has the same temperature as the room temperature. The solution containing the fragmented human CD137-Fc fusion protein was removed by tilting, and each well was washed three times with 300 μL of Wash buffer (TBS containing 0.1% Tween20, TaKaRa). Next, 150 μL of blocking buffer (TBS containing 2% BSA) was added to each well, and this was allowed to stand for one hour or more. The blocking buffer was removed by tilting, and each well was washed three times with Wash Buffer in a similar manner to an earlier step. Then, 50 μL of an antibody solution prepared in advance by dilution with TBS to 10 μg/mL or 5 μg/mL was added to each well. This was subjected to a speed of 600 rpm or so for one hour at room temperature to bind the antibody to the immobilized antigen. […] 100 μL of a secondary antibody solution produced by 1000-fold dilution with TBS containing 0.1% Tween20 was added to each well. For the secondary antibody, ANTIBODY ALKALINE PHOSPHATASE CONJUGATE HUMAN IMMUNOGLOBULIN ABSORBED Goat Anti-Human Kappa Alkaline Phosphate from BIOSOURCE was used in the case of antibodies carrying a Kappa chain, and Human Lambda Light Chain Antibody; Goat anti-Human Lambda Light Chain Antibody Alkaline Phosphatase Conjugated from BETHYL LABORATORIES INC. was used in the case of antibodies carrying a Lambda chain. […] Color development was performed using the BluePhos Microwell kit from KPL. After the chromogenic reaction was stopped using the AP stop solution from KPL, the absorbance was measured at 620 nm on an absorptiometer.

CRD1-3 [2] = molecular target: T2, CRD1-3; assay: as above
T2 construct: also called fragmented human CD137-Fc fusion protein CRD1-3
T2 sequence (chain, as listed by the source limits assumed): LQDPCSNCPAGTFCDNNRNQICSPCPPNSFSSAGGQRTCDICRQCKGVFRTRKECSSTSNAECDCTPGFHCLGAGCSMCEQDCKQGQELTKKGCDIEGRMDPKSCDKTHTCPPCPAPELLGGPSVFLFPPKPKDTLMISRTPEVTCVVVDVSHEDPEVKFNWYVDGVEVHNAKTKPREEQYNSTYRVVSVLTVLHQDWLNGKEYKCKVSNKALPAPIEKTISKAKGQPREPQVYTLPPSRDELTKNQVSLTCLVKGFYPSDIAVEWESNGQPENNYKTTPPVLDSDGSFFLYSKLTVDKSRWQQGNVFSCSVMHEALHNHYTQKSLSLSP
Protocol: as §1

CRD2-3 [3] = molecular target: T3, CRD2-3; assay: as above
T3 construct: also called fragmented human CD137-Fc fusion protein CRD2-3
T3 sequence (chain, as listed by the source limits assumed): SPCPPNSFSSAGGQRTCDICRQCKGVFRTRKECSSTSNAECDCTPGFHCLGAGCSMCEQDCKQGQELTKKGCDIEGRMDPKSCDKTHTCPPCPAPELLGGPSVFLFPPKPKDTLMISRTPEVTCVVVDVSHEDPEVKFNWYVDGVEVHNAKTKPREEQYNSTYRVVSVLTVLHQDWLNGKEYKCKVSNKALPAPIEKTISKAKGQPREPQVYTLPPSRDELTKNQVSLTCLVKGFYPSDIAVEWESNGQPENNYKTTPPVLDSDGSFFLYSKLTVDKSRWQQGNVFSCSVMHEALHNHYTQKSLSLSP
Protocol: as §1

[4] = molecular target: full-length human CD137-Fc fusion protein (human); assay: as above
full-length human CD137-Fc fusion protein (human), sequence (chain, as listed by the source limits assumed): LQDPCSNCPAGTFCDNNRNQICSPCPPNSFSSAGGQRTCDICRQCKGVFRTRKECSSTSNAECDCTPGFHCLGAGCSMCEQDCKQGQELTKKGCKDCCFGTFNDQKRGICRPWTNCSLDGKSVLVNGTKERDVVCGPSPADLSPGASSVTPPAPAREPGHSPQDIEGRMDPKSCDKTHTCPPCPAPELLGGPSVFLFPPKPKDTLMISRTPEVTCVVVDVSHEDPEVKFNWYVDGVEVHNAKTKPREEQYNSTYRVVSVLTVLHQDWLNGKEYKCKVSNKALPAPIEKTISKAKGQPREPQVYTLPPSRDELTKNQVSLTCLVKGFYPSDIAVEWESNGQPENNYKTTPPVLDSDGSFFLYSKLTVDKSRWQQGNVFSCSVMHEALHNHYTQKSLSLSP
Protocol: as §1

CRD2-4 [5] = molecular target: T4, CRD2-4; assay: as above
T4 construct: also called fragmented human CD137-Fc fusion protein CRD2-4
T4 sequence (chain, as listed by the source limits assumed): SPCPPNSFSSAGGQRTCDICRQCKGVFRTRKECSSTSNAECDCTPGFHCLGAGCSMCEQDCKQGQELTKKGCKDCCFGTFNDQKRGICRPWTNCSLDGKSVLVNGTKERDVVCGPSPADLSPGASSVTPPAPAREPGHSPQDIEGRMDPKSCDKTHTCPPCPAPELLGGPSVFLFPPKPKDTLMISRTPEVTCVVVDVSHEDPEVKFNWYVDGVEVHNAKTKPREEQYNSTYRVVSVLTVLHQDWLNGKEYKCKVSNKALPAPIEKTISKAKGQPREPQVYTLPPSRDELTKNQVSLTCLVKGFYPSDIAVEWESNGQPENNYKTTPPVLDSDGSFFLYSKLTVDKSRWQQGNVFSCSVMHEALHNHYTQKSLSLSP
Protocol: as §1

CRD1-2 [6] = molecular target: T5, CRD1-2; assay: as above
T5 construct: also called fragmented human CD137-Fc fusion protein CRD1-2
T5 sequence (chain, as listed by the source limits assumed): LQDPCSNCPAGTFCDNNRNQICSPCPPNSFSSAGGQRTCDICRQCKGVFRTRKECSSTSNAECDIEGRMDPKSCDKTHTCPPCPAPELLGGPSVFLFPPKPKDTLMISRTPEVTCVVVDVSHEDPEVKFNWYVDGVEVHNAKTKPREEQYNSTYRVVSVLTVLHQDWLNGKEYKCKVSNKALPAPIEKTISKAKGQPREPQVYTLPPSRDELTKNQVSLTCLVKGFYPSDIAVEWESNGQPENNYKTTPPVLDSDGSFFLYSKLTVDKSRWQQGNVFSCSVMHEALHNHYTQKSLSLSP
Protocol: as §1

CRD3-4 [7] = molecular target: T6, CRD3-4; assay: as above
T6 construct: also called fragmented human CD137-Fc fusion protein CRD3-4
T6 sequence (chain, as listed by the source limits assumed): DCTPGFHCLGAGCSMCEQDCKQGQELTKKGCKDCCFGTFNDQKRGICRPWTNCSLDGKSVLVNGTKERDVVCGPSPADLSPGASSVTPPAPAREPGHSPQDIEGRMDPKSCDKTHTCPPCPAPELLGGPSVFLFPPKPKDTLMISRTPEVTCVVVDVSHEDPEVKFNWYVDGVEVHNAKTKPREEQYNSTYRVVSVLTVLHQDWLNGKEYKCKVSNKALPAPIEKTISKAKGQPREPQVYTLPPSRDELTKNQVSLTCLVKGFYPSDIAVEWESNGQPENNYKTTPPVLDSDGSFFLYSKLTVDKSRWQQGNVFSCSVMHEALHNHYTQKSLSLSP
Protocol: as §1

CRD1 [8] = molecular target: T1, CRD1; assay: ELISA, coated CD137-Fc protein 2 µg/mL, antibody 10 or 5 µg/mL, absorbance 620 nm; Non (uncoated well) 0.216
CRD1-3 [9] = molecular target: T2, CRD1-3; assay: as above
CRD2-3 [10] = molecular target: T3, CRD2-3; assay: as above
[11] = molecular target: full-length human CD137-Fc fusion protein (human); assay: as above
CRD2-4 [12] = molecular target: T4, CRD2-4; assay: as above
CRD1-2 [13] = molecular target: T5, CRD1-2; assay: as above
CRD3-4 [14] = molecular target: T6, CRD3-4; assay: as above
CRD1 [15] = molecular target: T1, CRD1; assay: ELISA, coated CD137-Fc protein 2 µg/mL, antibody 10 or 5 µg/mL, absorbance 620 nm; Non (uncoated well) 0.061
Protocol: as §1

CRD1-3 [16] = molecular target: T2, CRD1-3; assay: as above
Protocol: as §1

CRD2-3 [17] = molecular target: T3, CRD2-3; assay: as above
Protocol: as §1

[18] = molecular target: full-length human CD137-Fc fusion protein (human); assay: as above
Protocol: as §1

CRD2-4 [19] = molecular target: T4, CRD2-4; assay: as above
Protocol: as §1

CRD1-2 [20] = molecular target: T5, CRD1-2; assay: as above
Protocol: as §1

CRD3-4 [21] = molecular target: T6, CRD3-4; assay: as above
Protocol: as §1

CRD1 [22] = molecular target: T1, CRD1; assay: ELISA, coated CD137-Fc protein 2 µg/mL, antibody 10 or 5 µg/mL, absorbance 620 nm; Non (uncoated well) 0.051
Protocol: as §1

CRD1-3 [23] = molecular target: T2, CRD1-3; assay: as above
Protocol: as §1

CRD2-3 [24] = molecular target: T3, CRD2-3; assay: as above
Protocol: as §1

[25] = molecular target: full-length human CD137-Fc fusion protein (human); assay: as above
Protocol: as §1

CRD2-4 [26] = molecular target: T4, CRD2-4; assay: as above
Protocol: as §1

CRD1-2 [27] = molecular target: T5, CRD1-2; assay: as above
Protocol: as §1

CRD3-4 [28] = molecular target: T6, CRD3-4; assay: as above
Protocol: as §1

CRD1-3 [29] = molecular target: T2, CRD1-3; assay: ELISA, coated CD137-Fc protein 2 µg/mL, antibody 10 or 5 µg/mL, absorbance 620 nm; Non (uncoated well) 0.165
CRD2-3 [30] = molecular target: T3, CRD2-3; assay: as above
[31] = molecular target: full-length human CD137-Fc fusion protein (human); assay: as above
CRD2-4 [32] = molecular target: T4, CRD2-4; assay: as above
CRD3-4 [33] = molecular target: T6, CRD3-4; assay: as above

| Binder | Ratio with respect to Non-Coating (CRD1 [1]) | Ratio with respect to Non-Coating (CRD1-3 [2]) | Ratio with respect to Non-Coating (CRD2-3 [3]) | Ratio with respect to Non-Coating [4] | Ratio with respect to Non-Coating (CRD2-4 [5]) | Ratio with respect to Non-Coating (CRD1-2 [6]) | Ratio with respect to Non-Coating (CRD3-4 [7]) | other results |
| --- | --- | --- | --- | --- | --- | --- | --- | --- |
| B1 | 1.3 | 6.3 | 1.3 | 8.7 | 1.2 | 7.9 | 0.7 | ELISA color development level (CRD1 [8]): 0.278; ELISA color development level (CRD1-3 [9]): 1.36; ELISA color development level (CRD2-3 [10]): 0.274; ELISA color development level [11]: 1.88; ELISA color development level (CRD2-4 [12]): 0.25; ELISA color development level (CRD1-2 [13]): 1.7; ELISA color development level (CRD3-4 [14]): 0.161 |
| B2 | 1.7 | 18.4 | 1.6 | 33.7 | 1.4 | 28.5 | 1.3 | ELISA color development level (CRD1 [15]): 0.103; ELISA color development level (CRD1-3 [16]): 1.12; ELISA color development level (CRD2-3 [17]): 0.0995; ELISA color development level [18]: 2.06; ELISA color development level (CRD2-4 [19]): 0.0875; ELISA color development level (CRD1-2 [20]): 1.74; ELISA color development level (CRD3-4 [21]): 0.077 |
| B3 | 1.2 | 15.3 | 1.1 | 37.1 | 1.3 | 29.3 | 1.1 | ELISA color development level (CRD1 [22]): 0.0635; ELISA color development level (CRD1-3 [23]): 0.779; ELISA color development level (CRD2-3 [24]): 0.0585; ELISA color development level [25]: 1.89; ELISA color development level (CRD2-4 [26]): 0.065; ELISA color development level (CRD1-2 [27]): 1.49; ELISA color development level (CRD3-4 [28]): 0.056 |
| B4 | – | 13.9 | 15.5 | 13.1 | 14.2 | – | 16.6 | ELISA color development level (CRD1-3 [29]): 2.3; ELISA color development level (CRD2-3 [30]): 2.56; ELISA color development level [31]: 2.16; ELISA color development level (CRD2-4 [32]): 2.34; ELISA color development level (CRD3-4 [33]): 2.73 |
